One assay has as its target Type I collagen. Description: ELISA on coated type I collagen with conditioned media.
The target of assay [1] is T1, Human DDR1 extracellular domain (ECD) protein (human, UniProt Q08345 21-417).
T1 construct: it is treated here as the same molecule; also called recombinant human DDR1 ECD; huDDR1 ECD; not shown: 6xHIS-tag
The experiment in a line: titration ELISA on human DDR1.

Another assay addresses T2, mouse DDR1 ECD (mouse, UniProt Q03146 22-415).
T2 construct: extracellular domain; construct not described; also called mouse ECD
T2 sequence (looked up): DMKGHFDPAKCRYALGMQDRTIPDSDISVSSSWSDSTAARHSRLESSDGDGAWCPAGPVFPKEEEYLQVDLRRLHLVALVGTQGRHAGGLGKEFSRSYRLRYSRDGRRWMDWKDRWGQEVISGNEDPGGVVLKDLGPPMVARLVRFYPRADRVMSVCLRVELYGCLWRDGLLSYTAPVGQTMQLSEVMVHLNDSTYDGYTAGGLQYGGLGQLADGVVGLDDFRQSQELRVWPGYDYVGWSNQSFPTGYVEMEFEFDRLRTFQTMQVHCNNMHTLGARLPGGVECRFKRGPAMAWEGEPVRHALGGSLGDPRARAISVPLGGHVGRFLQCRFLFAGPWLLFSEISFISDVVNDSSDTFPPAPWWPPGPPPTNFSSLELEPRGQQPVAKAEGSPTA
The experiment in a line: titration ELISA on mouse DDR1. (In general: An ELISA detects its analyte on a solid surface through an enzyme-linked reagent.)

In assay [2] the target is T1, Human DDR1 extracellular domain (ECD) …. Description: titration ELISA; target not given, human DDR1 assumed.
Target sequence in this assay (Q08345 21-417): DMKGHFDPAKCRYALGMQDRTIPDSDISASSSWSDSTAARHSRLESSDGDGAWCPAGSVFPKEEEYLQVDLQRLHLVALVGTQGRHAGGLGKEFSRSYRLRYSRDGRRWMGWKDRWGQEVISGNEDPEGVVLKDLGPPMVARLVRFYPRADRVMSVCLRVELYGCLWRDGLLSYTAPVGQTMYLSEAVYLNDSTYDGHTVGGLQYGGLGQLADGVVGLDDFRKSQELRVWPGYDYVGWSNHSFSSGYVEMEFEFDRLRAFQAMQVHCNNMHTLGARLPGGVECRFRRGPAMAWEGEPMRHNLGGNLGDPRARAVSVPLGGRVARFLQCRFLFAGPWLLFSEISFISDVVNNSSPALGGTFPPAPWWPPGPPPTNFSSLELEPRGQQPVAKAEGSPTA
The target in another assay is T3, human DDR2 ECD (human, UniProt Q16832 22-399).
T3 construct: extracellular domain; also called DDR2 ECD protein
T3 sequence (looked up): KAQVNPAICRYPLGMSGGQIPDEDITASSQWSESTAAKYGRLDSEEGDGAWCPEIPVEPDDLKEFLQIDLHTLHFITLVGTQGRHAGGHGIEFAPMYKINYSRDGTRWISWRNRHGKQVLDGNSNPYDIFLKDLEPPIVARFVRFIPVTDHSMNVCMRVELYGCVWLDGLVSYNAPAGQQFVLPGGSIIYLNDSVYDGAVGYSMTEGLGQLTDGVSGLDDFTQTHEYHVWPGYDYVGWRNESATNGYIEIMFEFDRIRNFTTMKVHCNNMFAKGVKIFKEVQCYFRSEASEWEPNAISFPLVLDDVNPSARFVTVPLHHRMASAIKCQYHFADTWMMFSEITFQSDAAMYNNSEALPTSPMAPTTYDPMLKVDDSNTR
The experiment in a line: ELISA, DDR2 ECD coated, antibody at 1 ug/ml, HRP anti-rabbit detection. As for the experimental part: FIG. 19. Determination of cross-reactivity of a panel of monoclonal antibodies to human DDR2 using ELISA method. DDR1 or DDR2 ECD protein was coated on a high binding plate and each of monoclonal antibodies at 1 ug/ml concentration was added for binding detection with HRP conjugated anti-rabbit antibody (Jackson ImmuneResearch, PA).
To determination cross-reactivity of a panel of anti-human DDR1 monoclonal antibodies to human DDR2 ECD, an ELISA method was used. DDR1 ECD or DDR2 ECD protein was coated on a high binding plate and each of monoclonal antibodies was applied at 1 ug/ml concentration and binding was detected using HRP conjugated anti-rabbit antibody (Jackson ImmuneResearch, PA). Monoclonal antibodies DDR1-3; DDR1-9; DDR1-10; DDR1-14 and DDR1-33 were specific for DDR1 epitopes, while clones DDR1-13; DDR1-15; DDR1-21; DDR1-22 and DDR1-34 appear to recognize epitopes present on both DDR1 and DDR2 ECD.

Assay [3] addresses T1, Human DDR1 extracellular domain (ECD) …. Description: BLI (Octet 96-Red), antibody on protein A biosensors, recombinant DDR1 0.1-200 nM, 1:1 fit. As to the method: Binding affinity of anti-DDR1 monoclonal antibodies determined using Bio-layer interferometry (BLI) sensor-based Octet instrument. […] Following a short baseline in kinetics buffer, the loaded biosensors were exposed to a series of recombinant DDR1 protein at 0.1-200 nM and background subtraction was used to correct for sensor drifting. All experiments were performed with shaking at 1,000 rpm. Background wavelength shifts were measured from reference biosensors that were loaded only with antibody. Kinetic sensorgrams for each antibody are shown in FIGS. 10A-B. ForteBio's data analysis software was used to fit the data to a 1:1 binding model to extract an association rate and dissociation rate. The KD was calculated using the ratio of koff/kₒₙ and the estimated values of KD for DDR1 mAbs in Table 13.
Target sequence in this assay (Q08345 21-417): as the sequence (Q08345 21-417) above
(In general: BLI is a label-free optical method that tracks binding on a fibre tip over time.)

Assay [4] concerns the target DDR1 ECD fragment with deletion of DS domain (Homo sapiens (Human)) (UniProt Q08345). Description: ELISA, ECDΔDS-His coated at 2 µg/ml, antibody titrated.
Assay [5] concerns the target T1, Human DDR1 extracellular domain (ECD) …. Description: ELISA, ECD-His coated at 2 µg/ml, antibody titrated. As to the method:
(§1) FIG. 18A-C. Determination of DDR1 antibody binding to ECD and DS or DSL domains using ELISA method. Recombinant DDR1 extracellular (ECD) protein and domain proteins were coated on a high binding 96-well plates at concentration at 2 μg/ml. (FIG. 18A) DDR1-9Hu antibody titration was used to determine binding curves and EC₅₀s. […] (FIG. 18C)
(§2) Antibody binding domain determination. To determine the binding of DDR1-9 (FIG. 18B) and DDR1-14 (FIG. 18C), and humanized DDR1-9hu-Abl to ECD and DS or DSL domains an ELISA method was used (FIG. 18A). Recombinant DDR1 extracellular (ECD) protein and domain deletion proteins were coated onto high binding 96-well plates at concentration at 2 ug/ml. […] Recombinantly expressed domain proteins were coated on a high-binding 96-well plate (Fisher Scientific) at concentration at 2 ug/ml. A series of antibody titrations was used to determine binding EC50. Deletion of DSL domain of DDR1 ECD impaired the bindings of both DDR1-9 and DDR1-14 antibodies. […] Fragment with DSL deletion totally abolished DDR1-9, DDR1-14, and DDR1-9Hu binding.

Assay [6] shares this target. Description: ELISA, ECD protein coated at 2 ug/ml, antibody titration. As for the experimental part:
as §1, §2

Assay [7] concerns the target DDR1 ECD fragment with deletion of DS domain (Homo sapiens (Human)) (UniProt Q08345). The experiment in a line: ELISA, domain deletion protein coated at 2 ug/ml, antibody titration.
Assay [8] has as its target T1, Human DDR1 extracellular domain (ECD) …. Description: BLI (Octet); target not given, recombinant DDR1 assumed.

“mouse DDR1 ECD T58A (from UniProt Q03146 22-415) (receptor)”: the percent of WT collagen binding affinity in the assay with Type I collagen came to 50%.

B1: DDR1-33 (antibody, V domains shown)
VH: QSVEESGGRLVTPGGSLTLTCTVSGFSLSSYDMSWVRQAPGKGLEWIGISWNSGFVDYASWAKGRFSISKTSTTVDLKITSPTTEDTATYFCARLGADDIYYFNLWGPGTLVTISS
VL: ELVMTQTPASVEAAVGGTVTIKCQASETISSRLAWYQQKPGQPPKLLIYQASKLPSGVPSRFKGTGSGTEYTLTISDLECADAATYYCQGCYYGGGSFYDSAFGGGTEVVVK
notes: Rabbit variable domains; also called anti-huDDR1 #33 antibody; DDR1-33K/DDR1-33H
By EC50 (read off the curve) is commonly meant the concentration giving half of the maximal effect. Low values mean greater potency, high ones weaker potency. In general, EC50 refers to the midpoint of the concentration-response curve. High values mean lower potency in that assay, low ones higher potency in that assay. A word on the Kd: it is the concentration at which binding is half-saturated. One may read the koff as the first-order rate constant of dissociation. One may read the kon as the second-order rate constant of association. Consider B1, for which the “EC50 (read off the curve)” value in assay [1] was roughly 0.02 µg/mL. Also, the “EC50 (read off the curve)” value with mouse DDR1 ECD was roughly 0.02 µg/mL. In addition, a half-maximal response in assay [2] (EC50) required 0.148 µg/mL. Also, the binding result with human DDR2 ECD is on record as “no binding (tested: 1 ug/ml)”. Besides, in [3], the Kd was 0.797 nM, the koff turned out to be 0.000493 s⁻¹ and the kon stood at 619000 M⁻¹ s⁻¹.

B2: DDR1-3 (antibody, V domains shown)
VH: QSVKESGGRLVTPGTPLTLTCTVSGIDLSSYAMSWVRQAPGKGLEWIGTINIGGGTWDATWARGRFTISRTSTTVDLKITSPTIGDTATYFCARDVDAHTLTYFTLWGPGTLVTISS
VL: ELVLTQTPASVSEPVGGTVTIKCQASQTISSWLSWYQQKPGQPPKLLIYYAFNLASGVPSRFKGSGSGTEFTLTISDLECADAATYYCQQGISSSNVDNVFGGGTEVVVK
notes: Rabbit variable domains; also called anti-huDDR1 antibody #3; DDR1-3K/DDR1-3H
Take B2: the concentration for a half-maximal effect (EC50 (read off the curve)) in assay [1] is roughly 0.02 µg/mL. The binding result with mouse DDR1 ECD is “no binding”. Further, the EC50 in assay [2] is 0.0598 µg/mL. In addition, in the assay with human DDR2 ECD, the binding result was “no binding (tested: 1 ug/ml)”. In addition, in assay [3], the Kd was found to be 1.1 nM, the koff was 0.00191 s⁻¹ and the on-rate (kon) amounted to 1.73e+06 M⁻¹ s⁻¹.

B3: DDR1-9 (antibody, V domains shown)
VH: QSLEESGGRLVTPGTPLTLTCTASGFSLNRYYMLWVRQAPGEGLEWIGTISYGDTTYYASWAKGRFTISKTSTTVDLKMTSPTTEDTATYFCARADTGDNGYLGLQLWGPGTLVTVSS
VL: ELVMTQTPASVEAAVGGTVTIKCQASQSIGSVLAWYQQKPGQRPKLLISGVFDLASGVPSRFKGSGSGTEFTLTISDLECADAATYYCQYIPYGSSPFGGGTEVVVK
notes: Rabbit variable domains; also called anti-huDDR1 antibody #9; DDR1-9K/DDR1-9H
Turning to B3, the EC50 (read off the curve) in [4] was found to be 0.2 µg/mL. The “EC50 (read off the curve)” value in [5] is roughly 0.2 µg/mL. The response in [2] was half-maximal at 0.183 µg/mL (EC50). Besides, the binding result with human DDR2 ECD is on record as “no binding (tested: 1 ug/ml)”. In assay [3], the dissociation constant (Kd) was found to be 0.236 nM, the koff turned out to be 7.35e-05 s⁻¹ and the kon came to 311000 M⁻¹ s⁻¹.

B4: DDR1-14 (antibody, V domains shown)
VH: QSVKESGGRLVTPGTPLTLTCTVSGIDLSYYAMSWVRQAPGKGLEYIGIINGRGDTGYATWAKGRFTISKTSTTVDLRITSPTIEDTATYFCAREDSAIPFIVGNYYGMDLWGPGTLVTVSS
VL: ELDMTQTPASVSEPVGGTVTIKCQASQSISSYLAWYQQKPGQPPKRLIFEASTLASGVPSRFSGSGSGTDFTLTISDLECADAATYYCQNNNGFSGSNFNNFGGGTEVEIK
notes: Rabbit variable domains; also called anti-huDDR1 antibody #14; DDR1-14K/DDR1-14H
As for B4, the binding result with mouse DDR1 ECD is recorded as “no binding”. It took 0.0713 µg/mL to reach a half-maximal effect in assay [2] (EC50). In the assay with human DDR2 ECD, the binding result is “no binding (tested: 1 ug/ml)”. In [3], the dissociation constant Kd was found to be 0.113 nM, the koff was determined as 2.27e-05 s⁻¹ and the on-rate (kon) turned out to be 202000 M⁻¹ s⁻¹.

B5: DDR1-9Hu-Ab1 (antibody, V domains shown)
VH: QVQLVESGGRVVQPGRSLRLSCTASGFSLNRYYMLWVRQAPGKGLEWIGTISYGDTTYYASWAKGRFTISRDNSKNTLYLQMNSLRAEDTAVYYCARADTGDNGYLGLQLWGQGTLVTVSS
VL: DIQMTQSPSSVSASVGDRVTITCQASQSIGSVLAWYQQKPGKAPKLLISGVFDLASGVPSRFSGSGSGTDFTLTISSLQPEDFATYYCQYIPYGSSPFGGGTKVEIK
notes: Humanized form of DDR1-9; also called DDR1-9hu-Abl; humanized DDR1-9hu antibody
Consider B5, for which the response in assay [6] was half-maximal at 0.083 µg/mL (EC50). In [7], this molecule registered an EC50 of 0.168 µg/mL. Moreover, in assay [8], the Kd was found to be 0.39 nM, the koff is 6.52e-05 s⁻¹ and the kon is 165000 M⁻¹ s⁻¹.

B6: DDR1-9Hu-Ab2 (antibody, V domains shown)
VH: QVQLVESGGRVVQPGRSLRLSCTASGFSLNRYYMLWVRQAPGKGLEWIGTISYGDTTYYASWAKGRFTISRDNSKNTLYLQMNSLRAEDTAVYYCARADTGDNGYLGLQLWGQGTLVTVSS
VL: DIQMTQSPSSVSASVGDRVTITCRASQSIGSVLAWYQQKPGKAPKLLIYGVFSLQSGVPSRFSGSGSGTDFTLTISSLQPEDFATYYCQYIPYGSSPFGGGTKVEIK
notes: Humanized form of DDR1-9
Take B6: in assay [8], the dissociation constant Kd is 0.77 nM, the koff was determined as 0.000113 s⁻¹ and the kon came out at 146000 M⁻¹ s⁻¹.

These data come from patent publication US20230235078A1 (University of Texas, published 2023).
